B1: TP-2E5 Fab (Fab, V domains shown)
VH: QVQLQQSGPGLVKPSQTLSLTCAISGDSVSSNSAAWSWIRQSPGRGLEWLGMIFYRSKWNNDYAVSVKSRITINPDTSKNQFSLQLNSVTPEDTAVYYCARVNANGYYAYVDLWGQGTLVTVSS
VL: DIQMTQSPSSLSASVGDRVTITCRASQPIYNSLSWYQQKPGKAPKLLIYGVSNLQSGVPSRFSGSGSGTDFTLTISSLQPEDFAVYYCLQVDNLPITFGQGTKVEIKR
notes: Human Fab from HuCal Gold, expressed in E. coli TG1
B2: TP-2H10 Fab (Fab, V domains shown)
VH: QVQLQQSGPGLVKPSQTLSLTCAISGDSVSSNGAAWGWIRQSPGRGLEWLGFIYRRSKWYNSYAVSVKSRITINPDTSKNQFSLQLNSVTPEDTAVYYCARQDGMGGMDSWGQGTLVTVSS
VL: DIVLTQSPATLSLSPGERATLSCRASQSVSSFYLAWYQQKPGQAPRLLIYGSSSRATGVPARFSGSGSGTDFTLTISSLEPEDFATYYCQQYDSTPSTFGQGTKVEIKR
notes: as for B1
B3: TP-2B3 Fab (Fab, V domains shown)
VH: QVQLQQSGPGLVKPSQTLSLTCAISGDSVSSNSAAWGWIRQSPGRGLEWLGMIYYRSKWYNSYAVSVKSRITINPDTSKNQFSLQLNSVTPEDTAVYYCARTMSKYGGPGMDVWGQGTLVTVSS
VL: DIVLTQSPATLSLSPGERATLSCRASQNIGSNYLAWYQQKPGQAPRLLIYGASTRATGVPARFNGSGSGTDFTLTISSLEPEDFAVYYCQQLNSIPVTFGQGTKVEIKR
notes: as for B1
B4: TP-2G5 Fab (Fab, V domains shown)
VH: QVQLQQSGPGLVKPSQTLSLTCAISGDSVSSNSAAWSWIRQSPGRGLEWLGFIYYRSKWYNDYAVSVKSRITINPDTSKNQFSLQLNSVTPEDTAVYYCARHNPDLGFDYWGQGTLVTVSS
VL: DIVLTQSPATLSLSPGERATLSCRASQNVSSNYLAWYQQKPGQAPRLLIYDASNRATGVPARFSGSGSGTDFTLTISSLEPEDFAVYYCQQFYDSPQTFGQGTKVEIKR
notes: as for B1
B5: TP-2A2 Fab (Fab, V domains shown)
VH: QVQLVESGGGLVQPGGSLRLSCAASGFTFSNNAMNWVRQAPGKGLEWVSTISYDGSNTYYADSVKGRFTISRDNSKNTLYLQMNSLRAEDTAVYYCARQAGGWTYSYTDVWGQGTLVTVSS
VL: DIELTQPPSVSVAPGQTARISCSGDNIRTYYVHWYQQKPGQAPVVVIYGDSKRPSGIPERFSGSNSGNTATLTISGTQAEDEADYYCQSYDSEADSEVFGGGTKLTVLG
notes: as for B1
B6: TP-2A5.1 Fab (Fab, V domains shown)
VH: QVQLVESGGGLVQPGGSLRLSCAASGFTFSSYGSWVRQAPGKGLEWVSVISGSGSSTYYADSVKGRFTISRDNSKNTLYLQMNSLRAEDTAVYYCARVNISTHFDVWGQGTLVTVSS
VL: DIELTQPPSVSVAPGQTARISCSGDNIPEKYVHWYQQKPGQAPVLVIHGDNNRPSGIPERFSGSNSGNTATLTISGTQAEDEADYYCQSFDAGSYFVFGGGTKLTVLG
notes: as for B1
B7: TP-3C2 Fab (Fab, V domains shown)
VH: QVQLQQSGPGLVKPSQTLSLTCAISGDSVSSSSAAWSWIRQSPGRGLEWLGMIYYRSKWYNHYAVSVKSRITINPDTSKNQFSLQLNSVTPEDTAVYYCARGGSGVMDVWGQGTLVTVSS
VL: DIQMTQSPSSLSASVGDRVTITCRASQSITNYLNWYQQKPGKAPKLLIYDVSNLQSGVPSRFSGSGSGTDFTLTISSLQPEDFAVYYCQQYSGYPLTFGQGTKVEIKR
notes: as for B1
B8: TP-3G3 Fab (Fab, V domains shown)
VH: QVQLVESGGGLVQPGGSLRLSCAASGFTFSSYSMSWVRQAPGKGLEWVSSISSSSSNTYYGDSVKGRFTISRDNSKNTLYLQMNSLRAEDTAVYYCARMHYKGMDIWGQGTLVTVSS
VL: B7 VL with S28N, T30H, N31S, Y32H, V51A, N53S, S92Y, G93D
notes: as for B1
B9: TP-3B4 Fab (Fab, V domains shown)
VH: QVQLQQSGPGLVKPSQTLSLTCAISGDSVSSNGAAWGWIRQSPGRGLEWLGHIYYRSKWYNSYAVSVKSRITINPDTSKNQFSLQLNSVTPEDTAVYYCARWGGIHDGDIYFDYWGQGTLVTVSS
VL: B7 VL with S28N, T30S, D50G, V51T, N53S, S92G, G93N, Y94N, L96T
notes: as for B1
B10: TP-2G6 Fab (Fab, V domains shown)
VH: B7 VH with M52I, H62D, G102H, G103S, S104M, G105V, V106G, M107F
VL: DIVLTQSPATLSLSPGERATLSCRASQYVTSSYLAWYQQKPGQAPRLLIYGSSRATGVPARFSGSGSGTDFTLTISSLEPEDFATYYCQQYSSSPITFGQGTKVEIKR
notes: as for B1
B11: TP-2A8 Fab (Fab, V domains shown)
VH: QVQLVESGGGLVQPGGSLRLSCAASGFTFRSYGMSWVRQAPGKGLEWVSSIRGSSSSTYYADSVKGRFTISRDNSKNTLYLQMNSLRAEDTAVYYCARKYRYWFDYWGQGTLVTVSS
VL: DIELTQPPSVSVAPGQTARISCSGDNLRNYYAHWYQQKPGQAPVVVIYYDNNRPSGIPERFSGSNSGNTATLTISGTQAEDEADYYCQSWDDGVPVFGGGTKLTVLG
notes: Human Fab from HuCal Gold, expressed in E. coli TG1; also called Fab-2A8

Substitutions are numbered along the chain they refer to.

The first assay deals with T1, mouse tissue factor pathway inhibitor (TFPI) (mouse, UniProt O54819 29-289, limits assumed).
T1 construct: Bought protein; also called mouse TFPI; mTFPI
T1 sequence (looked up): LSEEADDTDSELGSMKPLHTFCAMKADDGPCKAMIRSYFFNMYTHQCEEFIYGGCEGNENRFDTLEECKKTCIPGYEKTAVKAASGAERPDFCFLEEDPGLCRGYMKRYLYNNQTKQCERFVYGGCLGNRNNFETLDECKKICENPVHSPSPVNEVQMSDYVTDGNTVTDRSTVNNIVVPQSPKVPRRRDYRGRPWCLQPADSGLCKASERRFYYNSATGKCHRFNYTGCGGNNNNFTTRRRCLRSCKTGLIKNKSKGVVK
Briefly: ELISA, Fab on coated TFPI. As to the method:
(§1) To select antibody clones that bind to human TFPI, Fab genes of the phage clones from the second and third round of panning were subcloned into a bacterial expression vector and expressed in E. coli strain TG1. The bacterial lysate was added to the wells of the human TFPI-coated Maxisorp plates. After washing, HRP-conjugated goat anti-human Fab was used as a detection antibody and the plates were developed by adding AmplexRed (Invitrogen) with hydrogen peroxide. A signal of at least five-fold higher than the background was considered as positive. The cross reactivity of the anti-human TFPI antibodies to mouse TFPI was determined by a similar mouse TFPI-binding ELISA. The plates were coated with mouse TFPI (R&D System), BSA and lysozyme. The later two antigens were used as negative controls.
(§2) Purified Fab antibodies were used to determine EC₅₀ of anti-TFPI antibodies to human or mouse TFPI. EC₅₀ was assessed in an ELISA, similarly as described above. The results were analyzed using SoftMax. The binding affinity of anti-TFPI antibodies was determined in a Biacore assay. Briefly, the antigen, either human or mouse TFPI, was immobilized on the CM5-chips using the amine coupling kit (GE HealthCare) according to the instructions of the manufacturer. The amount of immobilized TFPI was adjusted to the mass of the antigen to give approximate 300 RU. The antibody Fabs were analyzed in mobile phase and at least five different concentrations (0.1, 0.4, 1.6, 6.4 and 25 nM) of the purified antibodies were used in the Biacore assay. The kinetics and binding affinity were calculated using Biacore T100 Evaluation software.
Background: An ELISA detects its analyte on a solid surface through an enzyme-linked reagent.
A word on the EC50: it is the concentration giving half of the maximal effect. High values mean a less potent agent, low ones a more potent agent. On to B1, for which the EC50 was 202 nM.

In turn, B2 yielded an EC50 of 32.4 nM.

On to B3, for which a half-maximal response (EC50) required 20.2 nM.

In turn, B4 showed an EC50 of 871 nM.

B5 yielded an EC50 of 1040 nM.

In turn, B6 registered an EC50 of 14.5 nM.

The molecule B7 had an EC50 of 957 nM.

On to B8, for which a half-maximal effect (EC50) was put at 47.1 nM.

Consider B9, for which the midpoint of the response, the EC50, lay at 34.6 nM.

For the molecule B10, the concentration giving a half-maximal response (EC50) was determined as 5.18 nM.

Take B11: the EC50 is 0.06 nM.

The next assay concerns the target T2, human tissue factor pathway inhibitor (TFPI) (human, UniProt P10646 29-304, limits assumed).
T2 construct: Bought protein; also called human TFPI; hTFPI
T2 sequence (looked up): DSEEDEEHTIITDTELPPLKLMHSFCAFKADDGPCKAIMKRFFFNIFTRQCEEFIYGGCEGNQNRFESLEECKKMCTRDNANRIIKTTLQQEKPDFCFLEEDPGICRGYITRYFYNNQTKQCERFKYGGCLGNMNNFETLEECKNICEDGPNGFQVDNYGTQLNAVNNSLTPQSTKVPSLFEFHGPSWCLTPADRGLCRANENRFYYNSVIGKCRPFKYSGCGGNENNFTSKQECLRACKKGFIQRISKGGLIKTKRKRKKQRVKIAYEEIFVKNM
Description: ELISA, Fab on coated TFPI. As for the experimental part:
as §1, §2
In turn, B1 came in with an EC50 of 792 nM.

Molecule B2 had an EC50 of 2.18 nM.

For the molecule B3, it took 0.84 nM to reach a half-maximal effect (EC50).

On to B4, for which the EC50 came out at 343 nM.

The molecule B5 registered a 50% effective concentration (EC50) of 0.62 nM.

For the molecule B6, the EC50 was determined as 28.6 nM.

In the case of B7, the EC50 was found to be 59 nM.

With B8, the EC50 was found to be 33.6 nM.

Regarding B9, a half-maximal response (EC50) required 35.8 nM.

Molecule B10 returned an EC50 of 0.48 nM.

Take B11: the EC50 was 0.09 nM.

In a further assay the target is T2, human tissue factor pathway inhibitor …. Briefly: cell-based or functional assay.
On to B1, for which the “% inhibition of hTFPI activity” value is 0% and the “dPT in hemoA plasma” value was determined as 79 s.

Consider B2, for which the “% inhibition of hTFPI activity” value stood at 63% and the “dPT in hemoA plasma” value was 79.5 s.

As to B3, the “% inhibition of hTFPI activity” value was determined as 100% and the “dPT in hemoA plasma” value stood at 74 s.

With B4, the “% inhibition of hTFPI activity” value came to 36% and the “dPT in hemoA plasma” value came to 73.2 s.

With B5, the “% inhibition of hTFPI activity” value came out at 23% and the “dPT in hemoA plasma” value worked out at 70.9 s.

For the molecule B6, the “% inhibition of hTFPI activity” value came to 30% and the “dPT in hemoA plasma” value turned out to be 70.8 s.

On to B7, for which the “% inhibition of hTFPI activity” value is 92% and the “dPT in hemoA plasma” value amounted to 68.9 s.

Consider B8, for which the “% inhibition of hTFPI activity” value was 15% and the “dPT in hemoA plasma” value worked out at 70.7 s.

Regarding B9, the “% inhibition of hTFPI activity” value came out at 25% and the “dPT in hemoA plasma” value stood at 69.1 s.

For the molecule B10, the “% inhibition of hTFPI activity” value was 86% and the “dPT in hemoA plasma” value came out at 62.8 s.

For the molecule B11, the “% inhibition of hTFPI activity” value turned out to be 100% and the “dPT in hemoA plasma” value was 57.9 s.

Another assay has as its target T1, mouse tissue factor pathway inhibitor …. Briefly: Biacore, TFPI on CM5 chip, Fab in mobile phase. As to the method: as §2
For orientation: SPR reads the build-up and loss of mass on a sensor chip optically.
Broadly, the Kd is a measure of binding affinity in units of concentration. Molecule B1 registered a Kd of 25.2 nM.

As for B2, the Kd was determined as 11.5 nM.

B3 registered a Kd of 27 nM.

Regarding B4, binding was characterised by a dissociation constant (Kd) of 16.1 nM.

In the case of B5, binding was characterised by a dissociation constant (Kd) of 29.8 nM.

Turning to B6, the Kd came out at 19.6 nM.

B7 returned a dissociation constant Kd of 28.5 nM.

Molecule B8 gave a Kd of 25.7 nM.

Molecule B9 returned a dissociation constant Kd of 20.4 nM.

B10: binding was characterised by a dissociation constant (Kd) of 46.1 nM.

B11: the dissociation constant (Kd) was 3.08 nM.

The next assay addresses T2, human tissue factor pathway inhibitor …. Description: Biacore, TFPI on CM5 chip, Fab in mobile phase. As to the method:
as §2
B1: binding was put at a Kd of 115 nM.

For the molecule B2, binding was put at a Kd of 10.2 nM.

As to B3, binding was put at a Kd of 7.4 nM.

The molecule B4 showed a Kd of 42.1 nM.

The molecule B5 registered a Kd of 6.57 nM.

For B6, the dissociation constant Kd was found to be 35.4 nM.

B7 displayed a Kd of 17.1 nM.

In the case of B8, binding was characterised by a dissociation constant (Kd) of 16 nM.

The molecule B9 returned a dissociation constant Kd of 14.1 nM.

B10 had a Kd of 5.06 nM.

For the molecule B11, binding was put at a Kd of 1.25 nM.

In a further assay the target is T3, BSA (bovine, UniProt P02769 25-607).
T3 construct: also called bovine serum albumin
T3 sequence (P02769 25-607 limits assumed): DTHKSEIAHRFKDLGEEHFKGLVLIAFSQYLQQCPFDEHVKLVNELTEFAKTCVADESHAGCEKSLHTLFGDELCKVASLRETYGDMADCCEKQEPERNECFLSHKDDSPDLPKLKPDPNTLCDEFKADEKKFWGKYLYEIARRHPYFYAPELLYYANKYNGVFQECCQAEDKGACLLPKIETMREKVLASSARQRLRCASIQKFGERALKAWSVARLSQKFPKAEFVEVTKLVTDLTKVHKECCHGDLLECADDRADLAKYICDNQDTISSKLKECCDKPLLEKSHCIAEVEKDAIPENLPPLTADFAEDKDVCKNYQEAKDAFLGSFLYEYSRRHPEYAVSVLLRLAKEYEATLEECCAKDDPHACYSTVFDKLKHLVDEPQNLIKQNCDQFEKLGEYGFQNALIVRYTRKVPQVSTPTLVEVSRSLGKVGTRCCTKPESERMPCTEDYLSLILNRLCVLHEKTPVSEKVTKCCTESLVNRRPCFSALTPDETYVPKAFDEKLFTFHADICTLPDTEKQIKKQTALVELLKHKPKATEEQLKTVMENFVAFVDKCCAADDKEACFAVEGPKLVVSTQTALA
Briefly: ELISA. As to the method:
as §1
Take B1: the binding result is “no binding”.

Take B2: the binding result was “no binding”.

Regarding B3, the binding result is “no binding”.

For B4, the binding result was “no binding”.

For the molecule B5, the binding result was “no binding”.

Consider B6, for which the binding result is recorded as “no binding”.

As for B7, the binding result is listed as “no binding”.

Take B8: the binding result is given as “no binding”.

B9: the binding result was “no binding”.

In the case of B10, the binding result is “no binding”.

For B11, the binding result was “no binding”.

The values above are taken from patent US20120269817A1 (Bayer, published 2012).
